Data reported in patent publication US20100183614A1.

Assays:
Assay in all cases: cell-based or functional assay
[1] = biological target: gp120 of clade A HIV strains
[2] = biological target: amyloid β peptide Aβ1-40 (UniProt P05067)
[3] = biological target: Efb (S. aureus virulence factor) (Staphylococcus aureus) (UniProt A6QG59)
Sequence of Efb (S. aureus virulence factor) (Staphylococcus aureus) (A6QG59 30-165 limits assumed): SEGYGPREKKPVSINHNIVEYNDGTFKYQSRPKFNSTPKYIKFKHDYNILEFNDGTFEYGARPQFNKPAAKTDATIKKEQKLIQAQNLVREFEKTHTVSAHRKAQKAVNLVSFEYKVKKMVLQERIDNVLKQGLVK

| Binder | HIV neutralization IC50 [1] | 125I-Aβ1-40 hydrolyzing activity, specific activity, preparation AEQ (fmol/h/mg protein) [2] | 125I-Aβ1-40 hydrolyzing activity, specific activity, preparation MA1 (fmol/h/mg protein) [2] | 125I-Aβ1-40 hydrolyzing activity, specific activity, preparation MA2 (fmol/h/mg protein) [2] | 125I-Aβ40 hydrolysis, activity in the absence of a competitor peptide [2] | Km [2] | kcat [2] | kcat/Km [2] | % Bt-Efb cleavage [3] |
| --- | --- | --- | --- | --- | --- | --- | --- | --- | --- |
| scFv JL427 (scFv) scFv: QSVLTQPPSVSGAPGQRVTISCSGSSSNFGLNYVYWYQHFPGTAPKLLIYRNDQRPLGVPARFSGSKSGTSASLAISGLRSEDEADYYCQSYDNSLSGWVFGGGTQLTVLGSSGGGGSGGGGSGGSALQVQLQQSGGGLVQPGRSLRLSCAASGFTFSSYGMHWVRQAPGKGLEWVSYIGRSGSHTNYADSVKGRFTISRDNSKNTLYLQINSLRAEDTAVYYCARGLPNYGMDIWGQGTTVTVSSGSASAPTLFPAAAHHHHHHGAAEQKLISEEDLNGAA | 0.2 µg/mL | – | – | – | – | – | – | – | – |
| IgVL2-t 2E6 (protein) QSALTQPASVSGSPGQSITISCTGTSSDVGGYNYVSWYQQHPGKAPKLMISEVSNRPSGVSNRFSGSKSGNTASLTISGPQTEDEADYYCSSYTSSSTPVVFGGGTQLTVLGSSGGGGSGGGGSGGSALDIQLTQSPSSLPASVGDRVTITCRASQSISSYLNWYQQKPGKAPKLLIYAASSLQSGVPSRFSGSGSGTDFTLTISSLQPEDFATYYCQQSYSTHTFGQGTKLEIKRAAAHHHHHHGAAEQKLISEEDLNGAA | – | 1160 | 380 | 368 | 2590 cpm/hour | 80 µM | 0.005 s⁻¹ | 61.7 M⁻¹ s⁻¹ | > 20% |
